Results published in patent publication US20030027303A1.

Experiments:
Assay in all cases: cell-based or functional assay
[1] = target: gut proteases of A. infusa (crude gut extract) (Agrotis infusa)
[2] = target: gut proteases of A. tasmaniae (crude gut extract) (Aphodius tasmaniae)
[3] = target: gut proteases of C. obliquana (crude gut extract) (Ctenopseustis obliquana)
[4] = target: gut proteases of C. rufifacies (crude gut extract) (Chrysomya rufifacies)
[5] = target: gut proteases of C. zealandica (crude gut extract) (Costelytra zealandica)
[6] = target: gut proteases of E. postvitiana (crude gut extract) (Epiphyas postvittana)
[7] = target: gut proteases of H. armigera (crude gut extract) (Helicoverpa armigera)
[8] = target: gut proteases of H. punctigera (crude gut extract) (Helicoverpa punctigera)
[9] = target: gut proteases of L. serricata (crude gut extract) (Lucilla sericata)
[10] = target: gut proteases of P. octo (crude gut extract) (Planotortrix octo)
[11] = target: gut proteases of P. opercullela (crude gut extract) (Phthorimaea opercullela)
[12] = target: gut proteases of S. litura (crude gut extract) (Spodoptera litura)
[13] = target: gut proteases of T. commodus (crude gut extract) (Teleogryllus commodus)
[14] = target: gut proteases of W. cervinata (crude gut extract) (Wiseana cervinata)
[15] = target: gut proteases of sugar cane grub (crude gut extract)

B1: C1, N. alata chymotrypsin inhibitor (peak 1 from HPLC) (peptide)
peptide: DRICTNCCAGTKGCKYFSDDGTFVCEGESDPRNPKACTLNCDPRIAYGVCPRS
B1 was tested. Which casein hydrolysis (% control) [1] did it give?
Its casein hydrolysis (% control) is 40.2 % control.

What about the casein hydrolysis (% control) [2] of the same binder?
The casein hydrolysis (% control) was 34.2 % control.

And the casein hydrolysis (% control) [3]?
The casein hydrolysis (% control) was 49.1 % control.

What about the casein hydrolysis (% control) [4] of the same binder?
The casein hydrolysis (% control) was 37.8 % control.

And the casein hydrolysis (% control) [5]?
The casein hydrolysis (% control) was 54.7 % control.

What about the casein hydrolysis (% control) [6] of the same binder?
Its casein hydrolysis (% control) is 45.4 % control.

And the casein hydrolysis (% control) [7]?
The casein hydrolysis (% control) was 32.7 % control.

And the casein hydrolysis (% control) [8]?
The casein hydrolysis (% control) was 29.3 % control.

And the casein hydrolysis (% control) [9]?
The casein hydrolysis (% control) was 100 % control.

And the casein hydrolysis (% control) [10]?
Its casein hydrolysis (% control) is 67.2 % control.

What about the casein hydrolysis (% control) [11] of the same binder?
Its casein hydrolysis (% control) is 100 % control.

And the casein hydrolysis (% control) [12]?
The casein hydrolysis (% control) was 33.6 % control.

And the casein hydrolysis (% control) [13]?
The casein hydrolysis (% control) was 35 % control.

What about the casein hydrolysis (% control) [14] of the same binder?
Its casein hydrolysis (% control) is 82.9 % control.

And the casein hydrolysis (% control) [15]?
The casein hydrolysis (% control) was 43.9 % control.
